Nine substances from patent US20200024330A1 can be followed below.

What is called IC50 is the point on the concentration scale where inhibition reaches its midpoint.

Holding throughout (assay): cell-based or functional assay
The target of assay [1] is HIV-1 IAVI-C3 envelope protein (Env) on pseudovirus (HIV-1).
Assay [2] addresses HIV-1 92RW009 envelope glycoprotein (Env) (HIV-1).
For assay [3], the target named is HIV-1 Env of isolate MGRM-D-008 (clade D) (HIV-1).
Assay [4] has as its target HIV-1 MGRM-A-011 envelope glycoprotein (Env) (HIV-1).
Assay [5] deals with HIV-1 MGRM-F1-017 Env (pseudovirus) (HIV-1).
Assay [6] deals with HIV-1 93UG077 envelope glycoprotein (Env) on pseudovirus (HIV-1).
The target in assay [7] is HIV-1 MGRM-C-024 Env (HIV-1).
Assay [8] deals with HIV-1 92UG031 envelope glycoprotein (Env) (HIV-1).
In assay [9] the target is HIV-1 MGRM-F1-023 Env (pseudovirus) (HIV-1).
For assay [10], the target named is HIV-1 Env of pseudovirus 92BR020, clade B (HIV-1).
In assay [11] the target is HIV-1 Env of isolate MGRM-D-002 (clade D) (HIV-1).
For assay [12], the target named is HIV-1 APV-6 envelope protein (Env) on pseudovirus (HIV-1).
Assay [13] has as its target HIV-1 Env of pseudovirus 93TH305, clade B (HIV-1).
In assay [14] the target is HIV-1 Env of pseudovirus THR0.18 (Acute), clade B (HIV-1).
In assay [15] the target is HIV-1 93IN905 envelope glycoprotein (Env) on pseudovirus (HIV-1).
The target of assay [16] is HIV-1 98IN022 envelope glycoprotein (Env) on pseudovirus (HIV-1).
The target of assay [17] is HIV-1 CMU02 envelope protein (Env) on pseudovirus (HIV-1).
Assay [18] has as its target HIV-1 MGRM-C-002 Env (HIV-1).
In assay [19] the target is HIV-1 Env of isolate MGRM-D-014 (HIV-1).
The target in assay [20] is HIV-1 Env of isolate 93IN905 (HIV-1).
Assay [21] concerns the target HIV-1 Env of isolate 98IN022 (HIV-1).
Assay [22] has as its target HIV-1 JR-CSF Env N188A (HIV-1 (isolate JR-CSF)) (UniProt P20871).
For assay [23], the target named is HIV-1 Env of isolate 97ZA012 (HIV-1).
Assay [24] has as its target HIV-1 Env of isolate MGRM-F1-015 (subtype F), on pseudovirus (HIV-1).
Assay [25] deals with HIV-1 Env of isolate MG RM-A-006 (HIV-1).
Assay [26] concerns the target HIV-1 Env of isolate MGRM-C-028 (HIV-1).
Assay [27] has as its target HIV-1 JR-CSF Env I165A (HIV-1 (isolate JR-CSF)) (UniProt P20871).
For assay [28], the target named is HIV-1 JR-CSF Env R166A (HIV-1 (isolate JR-CSF)) (UniProt P20871).
The target in assay [29] is HIV-1 Env of isolate MGRM-F1-014 (subtype F), on pseudovirus (HIV-1).
Assay [30] has as its target HIV-1 Env of isolate MGRM-C-012 (HIV-1).
Assay [31] concerns the target HIV-1 Env of isolate MGRM-C-008 (HIV-1).
Assay [32] has as its target HIV-1 Env of isolate MGRM-D-021 (HIV-1).
Assay [33] addresses HIV-1 Env of isolate APV-6 (pseudovirus) (HIV-1 isolate APV-6, subtype B).
Assay [34] deals with HIV-1 Env of isolate MGRM-D-011 (HIV-1).
In assay [35] the target is HIV-1 Env of isolate VLGCB3 (HIV-1).
Assay [36] has as its target HIV-1 Env of isolate 93MW959 (HIV-1).
Assay [37] concerns the target HIV-1 APV6 envelope glycoprotein (Env) on pseudovirus (HIV-1).

Sequence of 5345_I01 (PGT-137) (antibody) (VH): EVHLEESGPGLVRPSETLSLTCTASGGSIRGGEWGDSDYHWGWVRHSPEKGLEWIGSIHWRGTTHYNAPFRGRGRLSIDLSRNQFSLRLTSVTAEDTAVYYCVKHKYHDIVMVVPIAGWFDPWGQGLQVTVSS
Sequence of 5345_I01 (PGT-137) (antibody) (VL): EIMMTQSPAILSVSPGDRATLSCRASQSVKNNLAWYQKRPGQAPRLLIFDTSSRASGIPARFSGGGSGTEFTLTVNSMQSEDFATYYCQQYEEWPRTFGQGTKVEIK
Sequence of 5329_C19 (PGT-136) (antibody) (VH): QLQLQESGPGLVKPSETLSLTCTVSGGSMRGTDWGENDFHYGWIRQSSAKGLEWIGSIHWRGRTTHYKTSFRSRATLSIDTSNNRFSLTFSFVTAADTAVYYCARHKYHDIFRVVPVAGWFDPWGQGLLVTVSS
Sequence of 5329_C19 (PGT-136) (antibody) (VL): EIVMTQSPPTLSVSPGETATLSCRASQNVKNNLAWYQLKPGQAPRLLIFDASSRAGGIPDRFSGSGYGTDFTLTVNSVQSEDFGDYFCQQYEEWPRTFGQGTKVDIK

2F5 (antibody): the neutralization IC50 in assay [1] was over 50 µg/mL; in assay [12], 0.1 µg/mL; in assay [17], 0.38 µg/mL. The IC50 (µg/ml), pseudovirus neutralization in assay [2] is 39.1 µg/mL; in [3], over 50 µg/mL; in assay [4], over 50 µg/mL; in [5], over 50 µg/mL; in assay [8], 3.81 µg/mL; in [9] it was 1.78 µg/mL. The IC50 (µg/ml), pseudovirus neutralization is over 50 µg/mL in assay [10]; 24.6 µg/mL in assay [11]; 7.61 µg/mL in assay [13]; over 50 µg/mL in assay [14]; over 50 µg/mL in assay [16]. Besides, the IC90 (pseudovirus neutralization) in assay [6] was 33.4 µg/mL; in assay [15] it was over 50 µg/mL. The IC50 in assay [7] is over 50 µg/mL; in assay [18], 44.7 µg/mL.
As for 2G12 (antibody), the neutralization IC50 was over 50 µg/mL in assay [1], 5.3 µg/mL in assay [12] and over 50 µg/mL in assay [17]. Also, the IC50 (µg/ml), pseudovirus neutralization is 26.1 µg/mL in assay [2]; over 50 µg/mL in assay [3]; over 50 µg/mL in assay [4]; over 50 µg/mL in assay [5]; over 50 µg/mL in [8]; 9.23 µg/mL in assay [9]. For the same substance, the IC50 (µg/ml), pseudovirus neutralization in [10] is 4.84 µg/mL; in assay [11], over 50 µg/mL; in [13], 0.55 µg/mL; in assay [14] it was over 50 µg/mL; in assay [16], over 50 µg/mL. The IC90 (pseudovirus neutralization) in assay [6] and in assay [15] was over 50 µg/mL throughout. Also, the IC50 in assay [7] and in [18] was over 50 µg/mL each time.
Take 1495_C14 (PGC14) (antibody): the results for the neutralization IC50 in assay [1], in assay [12] and in assay [17] were over 50 µg/mL, 7.41 µg/mL and over 50 µg/mL, respectively. In addition, the IC50 (µg/ml), pseudovirus neutralization in assay [2], in [3], in [4], in assay [5], in [8] and in assay [9] was over 50 µg/mL each time. Also, the IC50 (µg/ml), pseudovirus neutralization in [10] is 4 µg/mL; in assay [11], 29 µg/mL; in assay [13], 6 µg/mL; in assay [14] it was over 50 µg/mL; in assay [16] it was 9 µg/mL. The IC50 in [7] and in [18] was over 50 µg/mL in each case.
With 5114_A19 (PGT-128) (antibody), the IC50 in assay [19] is 0.013 µg/mL; in assay [20], 0.009 µg/mL; in assay [21], 0.014 µg/mL; in assay [23], 0.019 µg/mL; in assay [26], 14.4 µg/mL; in [30], 0.058 µg/mL. The IC50 in assay [31] came out at 0.373 µg/mL; in [32], 0.014 µg/mL; in [34] it was 0.007 µg/mL; in [35] it was 0.012 µg/mL; in assay [36] it was 0.045 µg/mL. Also, the Fold IC50 increase relative to wild-type in assay [22] was 1.3 fold; in assay [27], 2.1 fold; in [28] it was 2.7 fold. Besides, the IC50, pseudovirus neutralization in assay [24] is over 50 µg/mL; in [29] it was 0.277 µg/mL. In addition, the neutralization IC50 in assay [25] was over 50 µg/mL. Moreover, the IC50 (µg/mL) neutralization in assay [33] was determined as 0.007 µg/mL.
Regarding 5136_H01 (PGT-131) (antibody), the IC50 in assay [19] was 0.516 µg/mL; in assay [20], 0.177 µg/mL; in [21], over 50 µg/mL; in assay [23], 1.81 µg/mL; in assay [26] it was over 50 µg/mL; in assay [30], over 50 µg/mL. Further, the IC50 in assay [31] was over 50 µg/mL; in assay [32], 0.106 µg/mL; in assay [34], 0.756 µg/mL; in assay [35] it was over 50 µg/mL; in assay [36], over 50 µg/mL. Besides, the Fold IC50 increase relative to wild-type was determined as 0.9 fold in [22], 2.4 fold in assay [27] and 1.6 fold in assay [28]. Besides, the IC50, pseudovirus neutralization in assay [24] and in [29] was over 50 µg/mL in each case. In addition, the neutralization IC50 in assay [25] was over 50 µg/mL. Moreover, in assay [33], the IC50 (µg/mL) neutralization is over 50 µg/mL.
On to 5147_N06 (PGT-130) (antibody), for which the IC50 is 0.061 µg/mL in [19]; 0.02 µg/mL in [20]; over 50 µg/mL in assay [21]; 1.32 µg/mL in [23]; over 50 µg/mL in [26]; over 50 µg/mL in [30]. The IC50 in assay [31] worked out at 7.28 µg/mL; in assay [32], 0.156 µg/mL; in assay [34], 0.019 µg/mL; in assay [35] it was 4.6 µg/mL; in [36], 8.55 µg/mL. In addition, the Fold IC50 increase relative to wild-type in assay [22] amounted to 1 fold; in assay [27], 3.2 fold; in assay [28], 1.2 fold. Moreover, the IC50 (ug/ml), neutralizing activity is over 10 µg/mL in assay [37], over 10 µg/mL in [6] and 0.0182 µg/mL in [15]. The IC50, pseudovirus neutralization in [24] is over 50 µg/mL; in [29], 11.8 µg/mL. For the same substance, in assay [25], the neutralization IC50 is over 50 µg/mL. The substance also yielded an IC50 (µg/mL) neutralization in assay [33] of over 50 µg/mL.
Regarding 5329_C19 (PGT-136) (antibody), the IC50 in assay [19] is over 50 µg/mL; in [20], 0.011 µg/mL; in assay [21], 13.6 µg/mL; in [23] it was over 50 µg/mL; in assay [26], 33.7 µg/mL; in assay [30], over 50 µg/mL. The IC50 in assay [31], in [32], in assay [34], in [35] and in assay [36] was over 50 µg/mL in each case. For the same substance, the IC50, pseudovirus neutralization in [24] and in [29] was over 50 µg/mL each time. Moreover, the neutralization IC50 in assay [25] was over 50 µg/mL. Also, the IC50 (µg/mL) neutralization in assay [33] is over 50 µg/mL.
Turning to 5343_B08 (PGT-135) (antibody), the IC50 in assay [19] was 2.21 µg/mL; in assay [20], 0.011 µg/mL; in [21], 0.014 µg/mL; in [23], over 50 µg/mL; in assay [26], 1.47 µg/mL; in [30] it was 0.017 µg/mL. Further, the IC50 in assay [31] was over 50 µg/mL; in [32], over 50 µg/mL; in assay [34], 23.5 µg/mL; in [35], 0.142 µg/mL; in [36], over 50 µg/mL. The Fold IC50 increase relative to wild-type turned out to be 0.4 fold in assay [22], 4 fold in assay [27] and 0.9 fold in assay [28]. Also, the results for the IC50, pseudovirus neutralization in [24] and in [29] were 1.11 µg/mL and over 50 µg/mL, respectively. Further, the neutralization IC50 in assay [25] is over 50 µg/mL. The substance further gave an IC50 (µg/mL) neutralization in assay [33] of over 50 µg/mL.
In the case of 5345_I01 (PGT-137) (antibody), the IC50 in assay [19] was over 50 µg/mL; in assay [20], 0.042 µg/mL; in [21], 0.408 µg/mL; in assay [23] it was over 50 µg/mL; in [26], over 50 µg/mL; in assay [30], 0.102 µg/mL. Moreover, the IC50 in assay [31] is over 50 µg/mL; in assay [32], over 50 µg/mL; in assay [34], 6.3 µg/mL; in assay [35], 3.36 µg/mL; in assay [36], over 50 µg/mL. For the same substance, the IC50, pseudovirus neutralization in assay [24] and in [29] was over 50 µg/mL throughout. For the same substance, in assay [25], the neutralization IC50 is over 50 µg/mL. The same substance showed an IC50 (µg/mL) neutralization in assay [33] of over 50 µg/mL.
